Results on 2 molecules are retold here after US20240197919A1 (CALIFORNIA INSTITUTE OF TECHNOLOGY, published 2024).

The target in the assay is T1, Ly6a-Fc fusion protein (murine, UniProt P05533 27-112).
T1 construct: Captured on a protein A sensor chip for SPR; also called Ly6a-Fc protein; not shown: Fc part
T1 sequence: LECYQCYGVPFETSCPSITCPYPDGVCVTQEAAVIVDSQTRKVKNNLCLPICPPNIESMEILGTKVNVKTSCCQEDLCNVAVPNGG
Nature of the assay: SPR, Ly6a-Fc captured on protein A chip, rAAV injected as analyte. (Surface plasmon resonance follows binding to a sensor surface in real time, without labels.)

B1: AAV-X1 (other)
chain: MAADGYLPDWLEDNLSEGIREWWALKPGAPQPKANQQHQDNARGLVLPGYKYLGPGNGLDKGEPVNAADAAALEHDKAYDQQLKAGDNPYLKYNHADAEFQERLKEDTSFGGNLGRAVFQAKKRLLEPLGLVEEAAKTAPGKKRPVEQSPQEPDSSAGIGKSGAQPAKKRLNFGQTGDTESVPDPQPIGEPPAAPSGVGSLTMASGGGAPVADNNEGADGVGSSSGNWHCDSQWLGDRVITTSTRTWALPTYNNHLYKQISNSTSGGSSNDNAYFGYSTPWGYFDFNRFHCHFSPRDWQRLINNNWGFRPKRLNFKLFNIQVKEVTDNNGVKTIANNLTSTVQVFTDSDYQLPYVLGSAHEGCLPPFPADVFMIPQYGYLTLNDGSQAVGRSSFYCLEYFPSQMLRTGNNFQFSYEFENVPFHSSYAHSQSLDRLMNPLIDQYLYYLSRTINGSGQNQQTLKFSVAGPSNMAVQGRNYIPGPSYRQQRVSTTVTQNNNSEFAWPGASSWALNGRNSLMNPGPAMASHKEGEDRFFPLSGSLIFGKQGTGRDNVDADKVMITNEEEIKTTNPVATESYGQVATNHQSAQGNNTRSVAQAQTGWVQNQGILPGMVWQDRDVYLQGPIWAKIPHTDGNFHPSPLMGGFGMKHPPPQILIKNTPVPADPPTAFNKDKLNSFITQYSTGQVSVEIEWELQKENSKRWNPEIQYTSNYYKSNNVEFAVNTEGVYSEPRPIGTRYLTRNL
notes: Tested as an assembled rAAV particle; also called AAV-CAP.X1
For B1, the binding result is on record as “no binding”.

B2: AAV-X1.1 (other)
chain: MAADGYLPDWLEDNLSEGIREWWALKPGAPQPKANQQHQDNARGLVLPGYKYLGPGNGLDKGEPVNAADAAALEHDKAYDQQLKAGDNPYLKYNHADAEFQERLKEDTSFGGNLGRAVFQAKKRLLEPLGLVEEAAKTAPGKKRPVEQSPQEPDSSAGIGKSGAQPAKKRLNFGQTGDTESVPDPQPIGEPPAAPSGVGSLTMASGGGAPVADNNEGADGVGSSSGNWHCDSQWLGDRVITTSTRTWALPTYNNHLYKQISNSTSGGSSNDNAYFGYSTPWGYFDFNRFHCHFSPRDWQRLINNNWGFRPKRLNFKLFNIQVKEVTDNNGVKTIANNLTSTVQVFTDSDYQLPYVLGSAHEGCLPPFPADVFMIPQYGYLTLNDGSQAVGRSSFYCLEYFPSQMLRTGNNFQFSYEFENVPFHSSYAHSQSLDRLMNPLIDQYLYYLSRTIDGAATKNQTLKFSVAGPSNMAVQGRNYIPGPSYRQQRVSTTVTQNNNSEFAWPGASSWALNGRNSLMNPGPAMASHKEGEDRFFPLSGSLIFGKQGTGRDNVDADKVMITNEEEIKTTNPVATESYGQVATNHQSAQGNNTRSVAQAQTGWVQNQGILPGMVWQDRDVYLQGPIWAKIPHTDGNFHPSPLMGGFGMKHPPPQILIKNTPVPADPPTAFNKDKLNSFITQYSTGQVSVEIEWELQKENSKRWNPEIQYTSNYYKSNNVEFAVNTEGVYSEPRPIGTRYLTRNL
notes: Tested as an assembled rAAV particle; also called AAV9-X1.1
Regarding B2, the binding result is “no binding”.
